Source: patent publication US20090035320A1 (MIE UNIVERSITY, published 2009)

T1: PCI-Flag (human, UniProt P05154 26-406, limits assumed)
T1 construct: Full-length human PCI ORF with a C-terminal Flag tag, secreted by CHO cells and purified from the culture supernatant; also called Flag-tagged PCI
T1 chain: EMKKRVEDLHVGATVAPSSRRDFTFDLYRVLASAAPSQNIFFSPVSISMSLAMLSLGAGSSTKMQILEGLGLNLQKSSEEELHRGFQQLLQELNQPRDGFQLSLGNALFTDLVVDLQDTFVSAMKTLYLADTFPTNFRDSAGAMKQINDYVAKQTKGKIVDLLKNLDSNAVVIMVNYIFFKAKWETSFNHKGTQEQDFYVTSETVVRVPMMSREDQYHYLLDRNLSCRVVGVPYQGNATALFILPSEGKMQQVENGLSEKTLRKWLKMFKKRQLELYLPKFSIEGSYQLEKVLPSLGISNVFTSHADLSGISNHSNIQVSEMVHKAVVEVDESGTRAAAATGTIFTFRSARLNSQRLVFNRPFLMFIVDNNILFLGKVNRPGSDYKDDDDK


Target: T1, PCI-Flag
Assay: SPR (BIACORE 2000), PCI-Flag amine-coupled to CM5 chip, antibody injected
Experimental: PCI-Flag was diluted to 25 μg/ml with 10 mM sodium acetate (pH5.0), and then amine-coupled to a sensor chip CM5 (BIACORE; BR-1000-14) using an amine coupling kit (BIACORE; BR-1000-50) according to the method described in the kit. Approximately 3,000 RU of PCI-Flag was immobilized onto the CM5 chip by this treatment. The kinetic analyses described below were performed on BIACORE 2000 using the sensor chip. […] After the chip was equilibrated with HBS-EP buffer, 40 μl of the antibody solution at each concentration was injected at a flow rate of 20 μl/min. In the association phase, the antibody was injected over two minutes. Then, instead of the antibody, HBS-EP buffer was injected over two minutes in the dissociation phase. After the dissociation phase, 40 μl of 10 mM HCl and then 40 μl of 0.05% SDS were injected continuously to regenerate the sensor chip. The sensorgrams obtained by the procedure described above were superimposed, and the binding rate constant (ka), dissociation rate constant (kd), dissociation constant (KD), and maximal binding (Rmax) were computed using data analysis software (BIAevaluation, ver. 3.0).

| Binder | Kd | koff | kon |
| --- | --- | --- | --- |
| PC19G8 (antibody, IgG1, V domains shown, also called clone #19G8; anti-PCI neutralizing antibody) VH: EVQLQQSGAELVKPGASVKLSCTASGFDIKDTFMHWVKQRPEQGLEWIGRIDYVNGNTKYDPKFQGKATITGDTSSNTAYLQLSSLTSEDTAVYYCARGGYDVREFAYWGQGTLVTVSA VL: QIVLTQSPAIMSASPGEKVTITCSATSSLIYMHWFQQKPGSSPELWIYSTSNLASGVPARFSGSGSGTSYSLTISRMEAEDAATYYCQQRSSYPFTFGSGTKLEIK | 0.126 nM | 2.13e-05 s⁻¹ | 168000 M⁻¹ s⁻¹ |
| PC23D8 (antibody, IgG2a, V domains shown, also called anti-PCI neutralizing antibody) VH: EVQLQQSGAELVKPGASVKLSCTASGFDIKDTFMHWVKQRPEQGLEWIGRIDYVNGNTKYDPKFQGKATITGDTSSNTAYLQLSSLTSEDTAVYYCARGGYDVREFAYWGQGTLVTVSA VL: QIVLTQSPAIMSASPGEKVTITCSATSSLIYMHWFQQKPGSSPELWIYSTSNLASGVPARFSGSGSGTSYSLTISRMEAEDAATYYCQQRSSYPFTFGSGTKLEIK | 0.293 nM | 6.59e-05 s⁻¹ | 225000 M⁻¹ s⁻¹ |

The remaining lines, values ahead:

| Kd | koff | kon | Binder |
| --- | --- | --- | --- |
| 5.51 nM | 0.000489 s⁻¹ | 88800 M⁻¹ s⁻¹ | PC39C6 (antibody, IgG1, V domains shown, Mouse hybridoma monoclonal, IgG1, purified on Protein G; also called anti-PCI neutralizing antibody) VH: EVQLQQSGAELVRPGALVKLSCKASGFNIKDYYIHWVKQRPEQGLEWIGRIDLEKGNIIYDPKFQGKDNITADTSSNTAYLQLSSLTSEDTAVYYCARGGYDVPSFAYWGQGTLVTVSA VL: QIVLTQSPAIMSASPGEKVTITCSASSSVSYMHWFQQKPGTSPKLWIYSTSNLASGVPARFSGSGSGTSYSLTISRMEAEDAATYYCQQRSSYPFTFGSGTKLEIK |
| 0.473 nM | 7.17e-05 s⁻¹ | 151000 M⁻¹ s⁻¹ | PC23A7 (antibody, IgG2a, V domains shown, Mouse hybridoma monoclonal, IgG2a, purified on Protein G; also called anti-PCI neutralizing antibody) VH: EVQLQQSGAELVKPGASVKLSCTASGFDIRDTFMHWVKQRPEQGLEWIGRIDLVNVNTKYDPNFQDRATITADTSSNTAYLQLTSLTSEDTAVYYCARGGYDVREFAYWGQGTLVTVSA VL: QIVLTQSPAIMSASPGEKVTITCSATSSLIYMHWFQQKPGTSPKLWIYSTSNLASGVPARFSGSGSGTSYSLTISRMEAEDAATYYCQQRSSYPFTFGSGTKLEIK |
| 1.79 nM | 0.000313 s⁻¹ | 175000 M⁻¹ s⁻¹ | PC31E2 (antibody, V domains shown, also called anti-PCI neutralizing antibody) VH: QVQLQQSGAELVKPGASVKMSCKAFGYTFTTYPIEWMKQNHGKSLEWIGKFHPDNDDTNYNEKFKGKAKLTVEKSSSTVYLELSRLTSDDSAVYYCARGHDYDYGMDYWGQGTSVTVSS VL: DIVLTQSPASLAVSLGQRATISCKASQSVDYDGDSYLNWYQQKPGQPPKLLIYGASNLESGTPARFSGSGSGTDFTLDIHPVEEEDAATYYCQQSNEDPPTFGGGTKLEIT |
